Measurements reported in patent US20190041402A1 (GOVERNING COUNCIL OF THE UNIVERSITY OF TORONTO, published 2019).

Tests used:
rat αKlotho (endogenous) = biological target: T1, rat αKlotho (endogenous) (rat, UniProt Q9Z2Y9 35-983); assay: immunohistochemistry, unfixed frozen rat parathyroid tissue
T1 sequence (looked up): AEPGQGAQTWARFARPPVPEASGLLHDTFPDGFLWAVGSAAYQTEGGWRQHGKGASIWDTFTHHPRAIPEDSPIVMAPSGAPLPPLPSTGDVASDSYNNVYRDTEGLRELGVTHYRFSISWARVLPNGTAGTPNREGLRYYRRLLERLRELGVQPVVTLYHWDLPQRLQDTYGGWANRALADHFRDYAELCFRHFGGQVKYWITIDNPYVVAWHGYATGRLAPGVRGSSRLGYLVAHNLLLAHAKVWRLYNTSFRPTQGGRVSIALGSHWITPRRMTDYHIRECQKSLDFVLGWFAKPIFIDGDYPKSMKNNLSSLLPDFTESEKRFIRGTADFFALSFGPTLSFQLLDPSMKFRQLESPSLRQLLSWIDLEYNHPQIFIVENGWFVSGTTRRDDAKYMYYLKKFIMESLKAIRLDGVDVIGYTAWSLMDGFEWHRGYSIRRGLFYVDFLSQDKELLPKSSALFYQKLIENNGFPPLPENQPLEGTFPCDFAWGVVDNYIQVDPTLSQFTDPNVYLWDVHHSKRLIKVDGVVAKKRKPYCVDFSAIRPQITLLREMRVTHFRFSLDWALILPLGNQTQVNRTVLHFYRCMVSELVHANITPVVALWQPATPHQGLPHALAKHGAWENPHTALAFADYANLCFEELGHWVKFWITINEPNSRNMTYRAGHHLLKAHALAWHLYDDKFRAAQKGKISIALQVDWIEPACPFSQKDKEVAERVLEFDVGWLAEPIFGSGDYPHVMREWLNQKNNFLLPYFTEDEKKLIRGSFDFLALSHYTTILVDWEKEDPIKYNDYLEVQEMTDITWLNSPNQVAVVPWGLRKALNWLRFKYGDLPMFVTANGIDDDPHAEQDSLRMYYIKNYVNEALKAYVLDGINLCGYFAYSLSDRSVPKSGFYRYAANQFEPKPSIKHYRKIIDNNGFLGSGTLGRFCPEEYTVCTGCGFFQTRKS
Experimental: For labeling, sections were blocked (PBS, 1.5% BSA, 10% goat serum; 40 min) and incubated with the primary antibody sb106 ([…] in blocking solution; 4° C. overnight). After washing (PBS), sections were incubated with the Alexa 546 goat anti-human IgG (1:800 dilution, Invitrogen) for 1 hour at room temperature. After additional washes with PBS, the sections were fixed with 4% paraformaldehyde in PBS, washed with PBS, and mounted and visualized with a Zeiss LSM510 microscope.
Sb106 was highly reactive against αKlotho under native conditions. Immunoblot signals under denaturing conditions against mouse, rat, and human kidney tissue were weak, but in samples from transgenic mice overexpressing αKlotho [79], sb106-Fab detected a band corresponding to the full-length extracellular domain of αKlotho (FIG. 2A). In cultured cells, sb106-Fab was not able to detect αKlotho in immunoblots under denaturing conditions with lysates from NRK cells expressing native αKlotho but it was able to detect overexpressed antigen in cell lysates from HEK293 cells transfected with αKlotho (FIG. 2B). […] Cells were then incubated with sb106-Fab (5 μg/ml in 1% BSA in PBS) for 1 hr. […]

[1] = biological target: T2, soluble human αKlotho (recombinant) (human, UniProt Q9UEF7 34-981); assay: SPR (ProteOn XPR36), Fab captured by anti-IgG(H+L), human αKlotho injected in serial dilutions, Langmuir fit [continued) B.]
T2 construct: also called Hu aKL; recombinant human αKlotho
T2 sequence (looked up): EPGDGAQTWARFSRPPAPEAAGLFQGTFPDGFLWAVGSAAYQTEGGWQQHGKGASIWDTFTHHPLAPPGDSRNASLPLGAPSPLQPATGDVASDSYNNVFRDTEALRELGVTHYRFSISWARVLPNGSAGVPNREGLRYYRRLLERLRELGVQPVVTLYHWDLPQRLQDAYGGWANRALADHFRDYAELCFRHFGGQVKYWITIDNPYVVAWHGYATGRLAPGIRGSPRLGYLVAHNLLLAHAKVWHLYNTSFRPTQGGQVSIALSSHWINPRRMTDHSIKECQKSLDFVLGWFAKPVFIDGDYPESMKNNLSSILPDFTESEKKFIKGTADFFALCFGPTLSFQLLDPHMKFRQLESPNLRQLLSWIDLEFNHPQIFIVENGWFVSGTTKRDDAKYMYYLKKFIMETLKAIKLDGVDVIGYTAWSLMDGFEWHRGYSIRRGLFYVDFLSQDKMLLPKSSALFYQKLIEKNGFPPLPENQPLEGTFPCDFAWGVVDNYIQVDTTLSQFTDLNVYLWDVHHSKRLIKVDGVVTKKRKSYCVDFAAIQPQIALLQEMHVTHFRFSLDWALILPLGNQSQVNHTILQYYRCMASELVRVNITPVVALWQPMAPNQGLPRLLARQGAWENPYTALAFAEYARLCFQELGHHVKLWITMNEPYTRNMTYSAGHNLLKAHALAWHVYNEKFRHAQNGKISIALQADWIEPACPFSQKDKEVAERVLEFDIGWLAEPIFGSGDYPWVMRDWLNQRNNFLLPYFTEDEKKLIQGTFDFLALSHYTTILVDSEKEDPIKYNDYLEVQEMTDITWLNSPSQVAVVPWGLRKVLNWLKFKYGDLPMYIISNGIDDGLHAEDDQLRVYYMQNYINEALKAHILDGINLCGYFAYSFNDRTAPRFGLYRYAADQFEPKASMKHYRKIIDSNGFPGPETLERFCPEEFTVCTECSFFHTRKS
Experimental: (§1) Estimated affinities against human and mouse antigen for select αKlotho Fabs were obtained by surface plasmon resonance on a ProteOn XPR36 (FIG. 17). Fabs were captured using an anti-IgG(H+L) antibody and serial dilutions of αKlotho were injected. Binding curves were fitted to the Langmuir model. (A) Determined Kon, Koff and KD values. (B) and (C) Binding curves for human and mouse antigen respectively.

mouse αKlotho [2] = biological target: T3, mouse αKlotho (mouse, UniProt O35082 35-982); assay: SPR (ProteOn XPR36), Fab captured by anti-IgG(H+L), mouse αKlotho injected in serial dilutions, Langmuir fit
T3 construct: also called Mu aKL
T3 sequence (looked up): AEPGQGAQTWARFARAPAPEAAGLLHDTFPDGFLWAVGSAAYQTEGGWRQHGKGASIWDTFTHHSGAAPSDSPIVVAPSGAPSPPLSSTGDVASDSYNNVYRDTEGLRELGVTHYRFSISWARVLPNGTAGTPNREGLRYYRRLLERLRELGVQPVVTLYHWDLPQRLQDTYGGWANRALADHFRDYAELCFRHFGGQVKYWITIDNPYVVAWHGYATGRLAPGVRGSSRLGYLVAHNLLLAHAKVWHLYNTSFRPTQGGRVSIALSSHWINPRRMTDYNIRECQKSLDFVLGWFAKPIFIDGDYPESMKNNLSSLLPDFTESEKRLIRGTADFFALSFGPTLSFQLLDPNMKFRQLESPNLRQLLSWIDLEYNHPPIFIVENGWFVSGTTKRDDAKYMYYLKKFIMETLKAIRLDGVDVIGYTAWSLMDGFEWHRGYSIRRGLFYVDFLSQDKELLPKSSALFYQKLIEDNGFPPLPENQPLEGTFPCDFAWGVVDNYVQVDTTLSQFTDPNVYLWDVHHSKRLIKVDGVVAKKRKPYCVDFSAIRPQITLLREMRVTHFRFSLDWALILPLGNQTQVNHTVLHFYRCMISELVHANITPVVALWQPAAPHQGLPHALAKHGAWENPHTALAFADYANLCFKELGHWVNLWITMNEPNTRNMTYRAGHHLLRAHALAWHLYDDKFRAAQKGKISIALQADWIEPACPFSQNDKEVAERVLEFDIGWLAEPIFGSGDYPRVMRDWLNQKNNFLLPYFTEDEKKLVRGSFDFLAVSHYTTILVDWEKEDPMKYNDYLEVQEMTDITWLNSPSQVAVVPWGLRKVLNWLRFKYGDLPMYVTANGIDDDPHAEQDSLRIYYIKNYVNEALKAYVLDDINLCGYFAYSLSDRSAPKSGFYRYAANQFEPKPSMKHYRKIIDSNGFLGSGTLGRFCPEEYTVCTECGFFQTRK
Experimental: as §1

[3] = biological target: T4, extracellular domain (ECD) of human αKlotho, amino acids E34-S981 with C-terminal 6-His tag (R&D Systems … (human, UniProt Q9UEF7 34-981)); assay: SPR, Fab captured by anti-H+L IgG, αKlotho injected at 50 to 6.25 ug/ml, Langmuir fit [continued]
T4 construct: range 34-981; also called αKlotho (aa34-981); target antigen
T4 sequence: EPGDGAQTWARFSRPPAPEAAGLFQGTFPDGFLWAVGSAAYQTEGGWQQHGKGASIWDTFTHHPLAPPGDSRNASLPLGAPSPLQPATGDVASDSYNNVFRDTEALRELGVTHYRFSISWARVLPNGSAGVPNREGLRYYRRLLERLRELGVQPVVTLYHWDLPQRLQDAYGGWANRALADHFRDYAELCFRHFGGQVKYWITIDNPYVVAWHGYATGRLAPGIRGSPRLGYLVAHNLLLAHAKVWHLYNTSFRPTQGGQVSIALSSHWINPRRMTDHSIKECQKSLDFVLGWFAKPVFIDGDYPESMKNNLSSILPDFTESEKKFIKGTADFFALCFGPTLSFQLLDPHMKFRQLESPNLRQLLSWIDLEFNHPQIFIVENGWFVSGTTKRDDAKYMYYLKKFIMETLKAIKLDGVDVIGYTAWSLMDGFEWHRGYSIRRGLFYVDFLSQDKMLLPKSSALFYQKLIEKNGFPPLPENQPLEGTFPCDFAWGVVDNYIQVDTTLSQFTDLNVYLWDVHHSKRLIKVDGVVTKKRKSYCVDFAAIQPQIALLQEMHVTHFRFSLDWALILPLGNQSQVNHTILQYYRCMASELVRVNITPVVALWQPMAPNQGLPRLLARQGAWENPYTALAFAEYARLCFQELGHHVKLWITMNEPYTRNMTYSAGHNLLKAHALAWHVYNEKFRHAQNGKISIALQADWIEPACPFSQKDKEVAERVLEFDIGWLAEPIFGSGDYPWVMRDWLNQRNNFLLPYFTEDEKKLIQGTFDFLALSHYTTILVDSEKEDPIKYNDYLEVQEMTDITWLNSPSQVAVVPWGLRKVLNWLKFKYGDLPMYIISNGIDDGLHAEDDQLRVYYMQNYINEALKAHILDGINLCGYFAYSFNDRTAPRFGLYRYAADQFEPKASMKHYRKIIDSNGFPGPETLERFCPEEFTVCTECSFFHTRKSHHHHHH
Experimental: (§2) Affinity estimates for each of the antibodies were determined by surface plasmon resonance (SPR). Fabs were immobilized using an anti-H+L antibody and serial dilutions of αKlotho were injected.

[4] = biological target: T4, extracellular domain (ECD) of human …; assay: SPR, Fab captured by anti-H+L antibody, αKlotho injected
Experimental: as §2

mouse αKlotho [5] = biological target: T3, mouse αKlotho; assay: SPR (ProteOn XPR36), Fab captured by anti-IgG(H+L), mouse αKlotho injected in serial dilutions, Langmuir fit [continued) C.]
Experimental: as §1

[6] = biological target: T2, soluble human αKlotho (recombinant); assay: SPR (ProteOn XPR36), Fab captured by anti-IgG(H+L), human αKlotho injected in serial dilutions, Langmuir fit
Experimental: as §1

B1: sb106 IgG (antibody, V domains shown)
VH: EVQLVESGGGLVQPGGSLRLSCAASGFNISYYSIHWVRQAPGKGLEWVAYISPSYGYTSYADSVKGRFTISADTSKNTAYLQMNSLRAEDTAVYYCARYYVYASHGWAGYGMDYWGQGTLVTVSS
VL: DIQMTQSPSSLSASVGDRVTITCRASQSVSSAVAWYQQKPGKAPKLLIYSASSLYSGVPSRFSGSRSGTDFTLTISSLQPEDFATYYCQQAGYSPITFGQGTKVEIKR
notes: also called sb106 (48) full length IgG
Question: Does B1 bind (rat αKlotho (endogenous))?
Answer: binds

B2: anti-αKlotho Fab clone 4811 (Fab, V domains shown)
VH: EVQLVESGGGLVQPGGSLRLSCAASGFNLYYSYMHWVRQAPGKGLEWVASIYSSSSYTSYADSVKGRFTISADTSKNTAYLQMNSLRAEDTAVYYCARSPSWWVSYHSALDYWGQGTLVTVSS
VL: DIQMTQSPSSLSASVGDRVTITCRASQSVSSAVAWYQQKPGKAPKLLIYSASSLYSGVPSRFSGSRSGTDFTLTISSLQPEDFATYYCQQGYALFTFGQGTKVEIKR
notes: Fab (also as Fab-phage); FLAG tag on light chain; also called sb180
Question: How did the Kd [1] turn out when B2 was run?
Answer: 1.48 nM

Question: What about the koff [1] of the same binder?
Answer: 0.000516 s⁻¹

Question: What about the kon [1] of the same binder?
Answer: 349000 M⁻¹ s⁻¹

Question: And the Kd (mouse αKlotho [2])?
Answer: 19.9 nM

Question: And the koff (mouse αKlotho [2])?
Answer: 0.00545 s⁻¹

Question: And the kon (mouse αKlotho [2])?
Answer: 273000 M⁻¹ s⁻¹

Question: And the Kd [3]?
Answer: 1.13 nM

Question: And the koff [3]?
Answer: 0.000609 s⁻¹

Question: What about the kon [3] of the same binder?
Answer: 537000 M⁻¹ s⁻¹

Question: What about the Kd [4] of the same binder?
Answer: 2.3 nM

Question: And the Kd (mouse αKlotho [5])?
Answer: 10.3 nM

Question: And the koff (mouse αKlotho [5])?
Answer: 0.00276 s⁻¹

Question: And the kon (mouse αKlotho [5])?
Answer: 268000 M⁻¹ s⁻¹

Question: And the Kd [6]?
Answer: 1.48 nM

Question: And the koff [6]?
Answer: 0.000516 s⁻¹

Question: What about the kon [6] of the same binder?
Answer: 349000 M⁻¹ s⁻¹
